Reference: PMC3397996, “Ultramarine, a Chromoprotein Acceptor for Förster Resonance Energy Transfer” (PLoS ONE, 2012)

What was measured:
HcRed = assay: SEC; Superdex S200 10/30, 100 µl of 1 mg/ml applied, 20 mM Tris-HCl pH 8.0, 300 mM NaCl, column calibrated with molecular weight standards; self-association
[1] = target: Rtms5^F162R (Montipora efflorescens); assay: as above
[2] = target: Rtms5^S125R (Montipora efflorescens); assay: as above
[3] = target: Rtms5^S125R/F162P (Montipora efflorescens); assay: AUC; sedimentation velocity, 20°C, 300 mM NaCl, 20 mM Tris pH 8.0, samples at 0.1 mg/ml and 1.0 mg/ml, 40,000 rpm; self-association
[4] = target: Rtms5^S125R/F162P (Montipora efflorescens); assay: SEC; gel filtration, data not shown; self-association
[5] = target: the molecule itself; assay: AUC; sedimentation velocity, 20°C, 300 mM NaCl, 20 mM Tris pH 8.0, samples at 0.1 mg/ml and 1.0 mg/ml, 40,000 rpm; self-association

Molecule: HcRed
- stoichiometry N (HcRed): 2

Molecule: Rtms5^F162R (natural protein)
- stoichiometry N [1]: 2

Molecule: Rtms5^S125R (natural protein)
- stoichiometry N [2]: 2

Molecule: Rtms5^S125R/F162P (natural protein)
- stoichiometry N [3]: 2
- stoichiometry N [4]: 2

B1: Rtms5 (natural protein)
chain: MSVIATQMTYKVYMSGTVNGHYFEVEGDGKGRPYEGEQTVKLTVTKGGPLPFAWDILSPQCQYGSIPFTKYPEDIPDYVKQSFPEGFTWERIMNFEDGAVCTVSNDSSIQGNCFTYHVKFSGLNFPPNGPVMQKKTQGWEPHSERLFARGGMLIGNNFMALKLEGGGHYLCEFKTTYKAKKPVKMPGYHYVDRKLDVTNHNKDYTSVEQCEISIARKPVVA
notes: Cloned in pQE9N; also called wildtype Rtms5; source: E. coli BL21-DE3 (pQE9N:Rtms5), purified (Ni-NTA)
- stoichiometry N [5]: 4
